Test results reported in PMC9907729 (Immunity, 2022).
Substitutions are numbered along the chain they refer to. Numbers in names are those of the source.

T1: MBP-tagged FoxP3^RBR-forkhead (mouse, UniProt Q99JB6 284-423)
T1 sequence (looked up): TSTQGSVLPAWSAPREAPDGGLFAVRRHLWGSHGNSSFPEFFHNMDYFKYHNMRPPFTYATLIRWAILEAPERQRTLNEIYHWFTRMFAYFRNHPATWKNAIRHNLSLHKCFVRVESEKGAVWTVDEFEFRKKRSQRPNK

B1: GST-tagged Runx1 (residue 371–451) (domain or fragment, mouse, UniProt Q03347 371-451, looked up)
chain: GSPSYHLYYGASAGSYQFSMVGGERSPPRILPPCTNASTGAALLNPSLPSQSDVVETEGSHSNSPTNMPPARLEEAVWRPY
B2: NusA-tagged FoxP3^RBR-forkhead R337Q (domain or fragment, mouse, UniProt Q99JB6 284-423, looked up)
chain: T1 sequence (looked up) with R54Q
B3: Recombinant Y373V FoxP3^RBR-forkhead (domain or fragment, mouse, UniProt Q99JB6 284-423, looked up)
chain: T1 sequence (looked up) with Y90V
B4: NusA-tagged FoxP3^ΔN (domain or fragment, mouse, UniProt Q99JB6 188-423, looked up)
chain: GSYPLLANGVCKWPGCEKVFEEPEEFLKHCQADHLLDEKGKAQCLLQREVVQSLEQQLELEKEKLGAMQAHLAGKMALAKAPSVASMDKSSCCIVATSTQGSVLPAWSAPREAPDGGLFAVRRHLWGSHGNSSFPEFFHNMDYFKYHNMRPPFTYATLIRWAILEAPERQRTLNEIYHWFTRMFAYFRNHPATWKNAIRHNLSLHKCFVRVESEKGAVWTVDEFEFRKKRSQRPNK

Legend:
[1] = molecular target: T1, MBP-tagged FoxP3^RBR-forkhead; experiment: pull-down
SEC-MALS = molecular target: the molecule itself; experiment: SEC-MALS
SEC = molecular target: the molecule itself; experiment: SEC

Binder | stoichiometry N (SEC-MALS) | further results
B1 | – | binding result [1]: binds
B2 | 2 | –
B3 | – | stoichiometry N (SEC): 4
B4 | 2 | –
